Measurements taken from patent US20170137818, “APTAMER INHIBITING BIOLOGICAL ACTIVITY OF AUTOTAXIN BY BINDING WITH AUTOTAXIN, AND USE THEREOF” (RIBOMIC INC., published 2017).

Tests used:
[1] = target: T1, autotaxin (endogenous, human pooled serum) (Homo sapiens, UniProt Q13822 Q13822:36-863); test: inhibition; LPA production in serum, 0.10 uM
[2] = target: T1, autotaxin (endogenous, human pooled …); test: inhibition; LPA production in serum, 0.025 uM
[3] = target: T2, autotaxin (ENPP2/NPP2) (Homo sapiens, UniProt Q13822 Q13822:36-863); test: inhibition; NPP2 assay per text (column headed LysoPLD)
[4] = target: T2, autotaxin (ENPP2/NPP2); test: inhibition; LysoPLD assay, 2 mM 14:0 LPC, 2.1 nM autotaxin, 37 C
[5] = target: T2, autotaxin (ENPP2/NPP2); test: inhibition; NPP2 assay, 37 C

B1: 12(61) (ssDNA)
DNA: CCTGGACGGAACCAGAATACTTTTGGTCTCCAGG
modifications: 2'-OMe C7,G9,A14,G15,A19,C20,A32,G33,G34; P-methyl C12 (between C12 and C13); 5' idT, 3' idT
Which activity [1] does the source give for B1 here?
Its activity is 91 % inhibition.

How did the activity [1] turn out when CCTGGACGGAACCAGAATACTTTTGGTCTCCAGG (ssDNA, 2'-OMe C7,G9,A14,G15,A19,C20,A32,G33,G34; PS between G8 and G9; 5' idT, 3' idT) [12(77)] was run?
The activity was 88 % inhibition.

CCTGGACGGAACCAGAATACTTTTGGTCTCCAGG (ssDNA, 2'-OMe C7,G9,A14,G15,A19,C20,A32,G33,G34; P-methyl G8; 5' idT, 3' idT) [12(92)] was tested. Which activity [1] did it give?
Its activity is 91 % inhibition.

With CCTGGACGGAACCAGAATACTTTTGGTCTCCAGG (ssDNA, 2'-OMe C7,G9,A14,G15,A19,C20,A32,G33,G34; P-methyl T27; 5' idT, 3' idT) [12(97)] as the binder, how does the activity [1] read?
The activity was 7 % inhibition.

Which activity [1] does the source give for CCTGGACGGAACCAGAATACTTTTGGTCTCCAGG (ssDNA, 2'-OMe C7,G9,A14,G15,A19,C20,A32,G33,G34; PS between G9 and A10; 5' idT, 3' idT) [12(105)] here?
The activity was 25 % inhibition.

How did the activity [1] turn out when CCTGGACGGAACCAGAATACTTTTGGTCTCCAGG (ssDNA, 2'-OMe C7,G9,A14,G15,A19,C20,A32,G33,G34; P-methyl G8,C12; 5' idT, 3' idT) [12(118)] was run?
Its activity is 98 % inhibition.

CCTGGACGGAACCAGAATACTTTTGGTCTCCAGG (ssDNA, 2'-OMe C7,G9,A14,G15,A19,C20,A32,G33,G34; P-methyl G8,C12,C28; 5' idT, 3' idT) [12(119)] was tested. Which activity [1] did it give?
The activity was 97 % inhibition.

B2: 12(131) (ssDNA)
DNA: B1 DNA
modifications: 2'-OMe C7,G9,A14,G15,A19,C20,A32,G33,G34; P-methyl G8; 5' 40 kDa PEG via ssH linker, 3' idT
B2 was tested. Which activity [1] did it give?
The activity was 91 % inhibition.

B3: 12(132) (ssDNA)
DNA: B1 DNA
modifications: 2'-OMe C7,G9,A14,G15,A19,C20,A32,G33,G34; P-methyl C1,G5,G8,C12,A16,T21,T23,C28,C30,C31; 5' idT, 3' idT
How did the activity [2] turn out when B3 was run?
The activity was 59 % inhibition.

B4: 12(133) (ssDNA)
DNA: B1 DNA
modifications: 2'-OMe C7,G9,A14,G15,A19,C20,A32,G33,G34; P-methyl G8,C12,C28; 5' 40 kDa PEG via ssH linker, 3' idT
How did the activity [2] turn out when B4 was run?
Its activity is 90 % inhibition.

B5: 12(135) (ssDNA)
DNA: B1 DNA
modifications: 2'-OMe C7,G9,A14,G15,A19,C20,A32,G33,G34; P-methyl C1,G5,G8,C12,A16,T21,T23,C28,C30,C31,G34; 5' idT, 3' idT
Which activity [2] does the source give for B5 here?
Its activity is 50 % inhibition.

B6: 12(139) (ssDNA)
DNA: B1 DNA
modifications: 2'-OMe C7,G9,A14,G15,A19,C20,A32,G33,G34; P-methyl C1,G5,G8,C12,A16,A19,T21,T23,C28,C30,C31; 5' idT, 3' idT
B6 was tested. Which activity [2] did it give?
Its activity is 71 % inhibition.

B7: 12(141) (ssDNA)
DNA: B1 DNA
modifications: 2'-OMe C7,G9,A14,G15,A19,C20,A32,G33,G34; P-methyl C1,G5,G8,C12,A14,A16,T21,T23,C28,C30,C31; 5' idT, 3' idT
For B7, which activity [2] is on record?
The activity was 56 % inhibition.

B8: 12(145) (ssDNA)
DNA: B1 DNA
modifications: 2'-OMe C7,G9,A14,G15,A19,C20,A32,G33,G34; P-methyl C1,G5,G8,C12,A16,A19,T21,T23,C28,C30,C31; 5' 40 kDa PEG via ssH linker, 3' idT
How did the activity [2] turn out when B8 was run?
The activity was 82 % inhibition.

B9: 12(147) (ssDNA)
DNA: B1 DNA
modifications: 2'-OMe C7,G9,A14,G15,A19,C20,A32,G33,G34; P-methyl C1,G5,G8,C12,A14,A16,A19,T21,T23,C28,C30,C31,G34; 5' 40 kDa PEG via ssH linker, 3' idT
With B9 as the binder, how does the activity [2] read?
The activity was 70 % inhibition.

B10: 12(150) (ssDNA)
DNA: B1 DNA
modifications: 2'-OMe C7,G9,A14,G15,A19,C20,A32,G33,G34; P-isopropoxy between C12 and C13; 5' idT, 3' idT
Which IC50 [3] does the source give for B10 here?
Its IC50 is 0.17 nM.

B11: 12(152) (ssDNA)
DNA: B1 DNA
modifications: 2'-OMe C7,G9,A14,G15,A19,C20,A32,G33,G34; P-butoxy between C12 and C13; 5' idT, 3' idT
How did the IC50 [3] turn out when B11 was run?
The IC50 was 0.23 nM.

B12: 12(151) (ssDNA)
DNA: B1 DNA
modifications: 2'-OMe C7,G9,A14,G15,A19,C20,A32,G33,G34; P-propoxy between C12 and C13; 5' idT, 3' idT
Which IC50 [3] does the source give for B12 here?
Its IC50 is 0.32 nM.

B13: 12(149) (ssDNA)
DNA: B1 DNA
modifications: 2'-OMe C7,G9,A14,G15,A19,C20,A32,G33,G34; P-methyl G5,G8,C12,A16,T21,T23,C28,C30,C31,G34; 5' idT, 3' idT
How did the IC50 [4] turn out when B13 was run?
Its IC50 is 6.1 nM.

B14: SEQ 6 aptamer (ssDNA)
DNA: GTGGTCTAGCTGTACTCGGAACCGTACTCAACGGTCAGTACCTTTGCGCCGCAGCAAGCCACAGTCAACGAGCTA
For B14, which IC50 [5] is on record?
Its IC50 is 20 nM.

B15: SEQ 10 aptamer (ssDNA)
DNA: GTGGTCTAGCTGTACTCGCCGGAACCGTACTATGGTCGCGTTGTATGACGCTTGTATCCACAGTCAACGAGCTA
With B15 as the binder, how does the IC50 [5] read?
The IC50 was 21 nM.

Which IC50 [5] does the source give for TACGCTCGGAACCGAGGCAATTGGTCAGCGTG (ssDNA) [SEQ 27 aptamer] here?
Its IC50 is 24 nM.

B16: SEQ 21 aptamer (ssDNA)
DNA: ACACTCACAGGCGCTGGCCACCACTGCACCGGAACCGCGAATGTGGTCGTGCATGGCCGCTAGT
With B16 as the binder, how does the IC50 [5] read?
Its IC50 is 28 nM.

B17: SEQ 22 aptamer (ssDNA)
DNA: ACACTCACAGGCGCTGGCCGGAACCGTGCATATGGTCGCCAGCACATCGTGCATGGCCGCTAGT
Which IC50 [5] does the source give for B17 here?
The IC50 was 30 nM.

B18: SEQ 25 aptamer (ssDNA)
DNA: ACACTCACAGGCGCTGGCGACGTCGGAACCGTGTACCATGGTCACGTCGTGCATGGCCGCTAGT
For B18, which IC50 [5] is on record?
The IC50 was 31 nM.

B19: SEQ 24 aptamer (ssDNA)
DNA: ACACTCACAGGCGCTGGCGAGTCGGAACCGAGCCGATTGGTCACTCGCGTGCATGGCCGCTAGT
B19 was tested. Which IC50 [5] did it give?
Its IC50 is 32 nM.
